From publication PMC11046469, “Leveraging a Phage-Encoded Noncanonical Amino Acid: A Novel Pathway to Potent and Selective Epigenetic Reader Protein Inhibitors” (ACS Central Science, 2024)
Where a SMILES comes first, the peptide text is derived from it. The star is where a group is joined. Butyryl = CCCC(=O)*

T1: ENL YEATS domain (His-ENL YEATS) (Homo sapiens, UniProt Q03111)
T1 construct: (aa 1−148) was cloned in pET19b; made in house; host or cells: E. coli BL21(DE3pLysS)
T1 sequence (Q03111 1-148): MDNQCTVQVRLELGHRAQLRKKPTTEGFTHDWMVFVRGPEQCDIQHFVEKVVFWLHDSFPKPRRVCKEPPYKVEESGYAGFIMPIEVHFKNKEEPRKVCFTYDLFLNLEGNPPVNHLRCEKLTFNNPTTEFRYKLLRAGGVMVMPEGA

T2: ENL YEATS domain (His-ENL) (Homo sapiens, UniProt Q03111)
T2 construct: (aa 1−148) was cloned in pET19b; made in house; host or cells: E. coli BL21(DE3pLysS)
T2 sequence (Q03111 1-148): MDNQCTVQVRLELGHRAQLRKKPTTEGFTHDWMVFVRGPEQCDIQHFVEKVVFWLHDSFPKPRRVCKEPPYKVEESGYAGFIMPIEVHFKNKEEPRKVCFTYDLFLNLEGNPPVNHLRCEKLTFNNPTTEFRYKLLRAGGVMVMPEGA

T3: ENL YEATS domain (AviSUMO-ENL YEATS) (Homo sapiens, UniProt Q03111)
T3 construct: encoding ENL YEATS (aa 1−148) was cloned in pET28a-; made in house; host or cells: E. coli BL21(DE3pLysS), co-expressed with BirA (pBirAcm)
T3 sequence (Q03111 1-148): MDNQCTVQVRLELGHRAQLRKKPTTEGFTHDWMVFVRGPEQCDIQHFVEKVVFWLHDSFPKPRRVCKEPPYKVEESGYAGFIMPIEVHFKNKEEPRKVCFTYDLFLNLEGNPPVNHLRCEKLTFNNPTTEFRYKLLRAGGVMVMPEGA

T4: 6xHis-tagged ENL YEATS domain, Q03111
T4 chain: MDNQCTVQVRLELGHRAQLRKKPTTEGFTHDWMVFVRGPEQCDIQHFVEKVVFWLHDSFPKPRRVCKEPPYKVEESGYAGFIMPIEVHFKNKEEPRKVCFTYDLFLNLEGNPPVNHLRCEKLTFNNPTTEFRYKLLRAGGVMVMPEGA


target: T1, ENL YEATS domain (His-ENL YEATS); test: AlphaScreen inhibition of ENL YEATS binding to biotinylated H3K27cr peptide; details: mean ± SD, n = 3
Source text: (§1) To test the inhibition potency of the two selected peptides for the ENL YEATS domain, ENL-S1 and ENL-S2 were chemically synthesized through solid-phase peptide synthesis (SPPS) and evaluated by an AlphaScreen assay. In this assay, a biotinylated H3K27cr peptide and a 6xHis-tagged ENL YEATS domain (His-ENL YEATS) were immobilized on PerkinElmer streptavidin donor and nickel-chelating (Ni-NTA) acceptor beads, respectively. The use of a His-ENL YEATS instead of the original AviSUMO-ENL YEATS construct in the assay prevents potential false positive results derived from ligands which bind to the SUMO protein but not to the ENL YEATS domain. […] We then assessed the binding affinity of two ligands for the ENL YEATS domain using biolayer interferometry (BLI). Briefly, His-ENL was immobilized onto Ni-NTA functionalized biosensors to measure the binding kinetics of target peptides at different concentrations. […] As a small peptide directly selected from a phage display library, this level of high potency was unexpected. […] However, shorter-than-10-mer linear peptides with nanomolar binding potency have rarely been directly selected from phage display libraries. One example was S2P03, a 7-mer peptide that has a KD value as 49 ± 9 nM to bind to SIRT2.[10] This peptide contained BuK and was identified also from a BuK-containing phage display library using the active site-directed ligand selection technique. Taken together, the two examples confirmed that utilizing phage display libraries incorporated with a ncAA serving as a ligand for a protein target for active site-directed ligand selection is a successful method for identifying ultrahigh potency ligands for epigenetic proteins including both enzymes and readers. For ENL-S1 and ENL-S2, their determined kon and koff values were 6.23 ± 0.07 × 10^4 M^–1 s^–1, […] and […], 5.54 ± 0.02 × 10^–3 s^–1, respectively. Compared to ENL-S2, ENL-S1 has faster binding to the ENL YEATS domain and slower release from it, indicating its potential long-term action on the ENL YEATS inhibition. […]
Characterization of Selected Peptide Inhibitors
AlphaScreen Assay to Validate ENL Inhibitors:
His-ENL, His-AF9 (aa 1-149, EpiCypher), and biotinylated H3K27cr (aa 15-33, EpiCypher) were used to assay the synthesized inhibitors. The lyophilized peptide inhibitors were dissolved in DMF […]
and serially diluted into assay buffer (50 mM HEPES, 100 mM NaCl, 0.1% BSA, 0.05% CHAPS, pH 7.4) and incubated in the presence of 120 nM His-tagged protein at 37 °C for 30 minutes. 12.5 μL of biotinylated H3K27cr (400 nM) was aliquoted into a light gray 384-well Alphaplate (Perkin Elmer) and incubated at 37 °C. 12.5 μL of the inhibitor/protein solution was added to the H3K27cr solution, and incubated for 30 minutes at 37 °C. 25 μL of AlphaScreen histidine (nickel chelate) detection beads (Perkin Elmer) was added at 20 μg/mL each bead (streptavidin donor beads and nickel chelate acceptor beads), and the plate was incubated at 37 °C for 30 minutes. The plate was cooled to room temperature for 10 minutes, and then the beads were excited at 680 nm and the luminescence at 615 nm was read. […]
Biolayer […]
interferometry assays were performed in 96 well plates (GreinerBio-One, polypropylene, flat-bottom) using an Octet Red96 System (Sartorius). Wells were filled with 200 μL of assay buffer, blocking buffer (assay buffer + 0.1% BSA), protein solution, peptide solution, regeneration solution, and reload solution. For immobilization, His-tagged proteins were immobilized onto Ni-NTA sensors at 20 for 600 s. Sensors were then dipped into blocking buffer for 180 s, assay […] buffer for 300 s, peptide solution for 300 s, and back to assay buffer for 300 s. If multiple samples were tested, Ni-NTA sensors can be reconditioned in regeneration (10 mM glycine, pH 1.7) solution followed by reload solution (10 mM NiCl2) for 30 and 60 s, respectively. Measurements […]

Molecule | IC50 [nM]
CCCC(=O)NCCCC[C@H](NC(=O)[C@H](Cc1ccc(O)cc1)NC(=O)[C@H](CS)NC(=O)[C@H](Cc1ccc(O)cc1)NC(=O)[C@H](C)NC(=O)[C@H](CC(=O)O)NC(=O)[C@@H](N)Cc1ccc(O)cc1)C(N)=O [ENLS1A3] (H-YDAYCYK(Butyryl)-NH2; N-terminus assumed) | > 5000
CCCC(=O)NCCCC[C@H](NC(=O)[C@H](CCC(=O)O)NC(=O)[C@@H](NC(=O)[C@@H](NC(=O)[C@H](Cc1c[nH]c2ccccc12)NC(=O)[C@@H](N)Cc1c[nH]c2ccccc12)[C@@H](C)CC)[C@@H](C)CC)C(=O)NCC(N)=O [ENL-S2] (H-WWIIEK(Butyryl)G-NH2; N-terminus assumed) | 1220
CCCC(=O)NCCCC[C@H](NC(=O)[C@H](Cc1ccc(O)cc1)NC(=O)[C@H](C)NC(=O)[C@H](Cc1ccc(O)cc1)NC(=O)[C@@H](NC(=O)[C@H](CC(=O)O)NC(=O)[C@@H](N)Cc1ccc(O)cc1)C(C)C)C(N)=O [ENL-S1A5] (H-YDVYAYK(Butyryl)-NH2; N-terminus assumed) | > 2000

target: T2, ENL YEATS domain (His-ENL); test: Biolayer interferometry (BLI) binding to ENL YEATS; details: BLI
Source text: as §1
Biolayer Interferometry to Validate ENL Ligands:
His-ENL, His-AF9 (aa 1-149, EpiCypher), His-GAS41 (aa 15-160, EpiCypher), and YEATS2-His (aa 200-345, EpiCypher) were reconstituted in water and diluted into assay buffer (20mM Tris, 300 mM NaCl, pH 7.9) for immobilization onto Octet Ni-NTA biosensors (Sartorius). Lyophilized peptides were dissolved in DMF and diluted to designated concentrations in assay buffer. Biolayer interferometry assays were performed in 96 well plates (GreinerBio-One, polypropylene, flat-bottom) using an Octet Red96 System (Sartorius). Wells were filled with 200 μL of assay buffer, blocking buffer (assay buffer + 0.1% BSA), protein solution, peptide solution, regeneration solution, and reload solution. For immobilization, His-tagged proteins were immobilized onto Ni-NTA sensors at 20 for 600 s. Sensors were then dipped into blocking buffer for 180 s, assay […] buffer for 300 s, peptide solution for 300 s, and back to assay buffer for 300 s. If multiple samples were tested, Ni-NTA sensors can be reconditioned in regeneration (10 mM glycine, pH 1.7) solution followed by reload solution (10 mM NiCl2) for 30 and 60 s, respectively. Measurements were carried out at 30 °C. Data were analyzed within the ForteBio Data Analysis software. Data were processed by double subtracting ligand only and protein only reference wells and aligning the data to the beginning of the association. Then, global kinetic fit was performed for all sensogram curves with a 1:1 model. Steady state KD values were reported.
AlphaScreen Assay with Biotinylated-ENL-S1:
The AlphaScreen assay was carried out in 384-well plates. Manual assay setup was performed in a 40 uL reaction buffer (50 mM HEPES pH 7.4, 100 mM NaCl, 0.1% bovine serum albumin, and 0.05% CHAPS). 10 µL of varying concentrations of His-ENL YEATS (0-300 nM) and 10 µL of […]

Molecule | Kd [nM] | koff [s⁻¹]
CCCC(=O)NCCCC[C@H](NC(=O)[C@H](CCC(=O)O)NC(=O)[C@@H](NC(=O)[C@@H](NC(=O)[C@H](Cc1c[nH]c2ccccc12)NC(=O)[C@@H](N)Cc1c[nH]c2ccccc12)[C@@H](C)CC)[C@@H](C)CC)C(=O)NCC(N)=O [ENL-S2] (H-WWIIEK(Butyryl)G-NH2; N-terminus assumed) | 881 ± 9 | 0.00554

target: T3, ENL YEATS domain (AviSUMO-ENL YEATS); test: Phage panning of BuK-containing 7-mer library against AviSUMO-ENL YEATS with Illumina NGS abundance; details: sheet ENLR3: round 3 of panning against ENL YEATS; TAG = amber codon (BuK); 7-mer library positions V1-V7
How it was run: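 Phage displaying BuK-containing amber-obligate 7-mer peptides, made with 5 mM BuK, was panned against biotinylated AviSUMO-ENL YEATS on streptavidin beads with washes of rising stringency. Rounds 1 and 3 were sequenced by Illumina NGS, and sequences with mismatches were filtered out before copy-number abundance was counted.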

Molecule | n (number of NGS reads of the unique amino acid sequence) | percent (share of sequence reads) [%]
IMCYPFTAG | 28 | 0.0255
LLAFLWL | 1 | 0.0009106
MFTAGITDN | 1 | 0.0009106
CTAGGGSLF | 1 | 0.0009106
WWVAGPTAG | 70 | 0.06374
YYVYCYTAG | 38 | 0.0346
CDVYCYTAG | 10 | 0.009106
TAGTVTFWY | 3 | 0.002732
WWIIKTAGG | 9 | 0.008196
YDVYRYTAG | 9 | 0.008196
QCGTRTAGD | 13 | 0.01184
WWIIGTAGG | 6 | 0.005464
CHNWICTAG | 1 | 0.0009106
FLFDTTAGT | 1 | 0.0009106
YDVYCNTAG | 3 | 0.002732
WWIVETAGG | 6 | 0.005464
FTAGIYTAA | 1 | 0.0009106

same assay, conditions: sheet ENLR3: round 3 of selection against ENL YEATS; TAG = amber codon (BuK)

Molecule | n (number of NGS reads of the 7-mer sequence V1-V7) | percent (share of NGS reads of the 7-mer sequence V1-V7) [%]
YAVYCYTAG | 1 | 0.0009106
YDGYCYTAG | 1 | 0.0009106
QCAPRTAGD | 1 | 0.0009106
QCGPPTAGD | 1 | 0.0009106
STVYCYTAG | 1 | 0.0009106
NLTLFTAGG | 1 | 0.0009106
SGVGFTAGS | 1 | 0.0009106
SLERTAGGF | 1 | 0.0009106
YWTAGCARV | 1 | 0.0009106

Target: T4, 6xHis-tagged ENL YEATS domain, Q03111
Test: AlphaScreen
Details: chain shown with the change; n = 3; parent: 62.6 nM

Molecule | IC50 [nM]
YDVACYK [ENL-S1 Y4A] | 718
YAVYCYK [ENL-S1 D2A] | 52.2
YDVYAYK [ENL-S1 C5A] | > 2000
